B1: C-terminal Strep-tag HsMCU (human mitochondrial calcium uniporter) (natural protein)
chain: VHQRIASWQNLGAVYCSTVVPSDDVTVVYQNGLPVISVRLPSRRERCQFTLKPISDSVGVFLRQLQEEDRGIDRVAIYSPDGVRVAASTGIDLLLLDDFKLVINDLTYHVRPPKRDLLSHENAATLNDVKTLVQQLYTTLCIEQHQLNKERELIERLEDLKEQLAPLEKVRIEISRKAEKRTTLVLWGGLAYMATQFGILARLTWWEYSWDIMEPVTYFITYGSAMAMYAYFVMTRQEYVYPEARDRQYLLFFHKGAKKSRFDLEKYNQLKDAIAQAEMDLKRLRDPLQVHLPLRQIGEKD
B2: human MCU/EMRE complex (one channel: MCU tetramer with four EMRE subunits) (complex)
chain 1: B1 chain
chain 2: VSAAWSGSGRSLVPSRSVIVTRSGAILPKPVKMSFGLLRVFSIVIPFLYVGTLISKNFAALLEEHDIFVPEDDDDDD

Target: the molecule itself
Assay: cryo-EM structure

Protein	stoichiometry N
B1	4
B2	2

Source: publication PMC6597010 (Cell, 2019)
